Source: patent publication US20230134571A1 (INTERNATIONAL AIDS VACCINE INITIATIVE, published 2023)

Assays:
Assay in all cases: cell-based or functional assay
[1] = molecular target: HIV Env of isolate 1012_11_TC21_3257 (clade B) (HIV)
[2] = molecular target: HIV Env of isolate 191955_A11 (clade A) (HIV)
[3] = molecular target: HIV Env of isolate HIV-16055-2.3 (clade C) (HIV)
[4] = molecular target: HIV Env of isolate SC05_8C11_2344 (clade B) (HIV)
[5] = molecular target: HIV Env of isolate Q259.d2.17 (clade A) (HIV)
[6] = molecular target: HIV Env of isolate Du172.17 (clade C) (HIV)
[7] = molecular target: HIV Env of isolate CAP45.2.00.G3 (clade C) (HIV)
[8] = molecular target: HIV Env of isolate QH0692.42 (clade B) (HIV)
[9] = molecular target: HIV Env of isolate T251-18 (clade AG) (HIV)
[10] = molecular target: HIV Env of isolate T257-31 (clade AG) (HIV)
[11] = molecular target: HIV Env of isolate 6041.v3.c23 (clade AC) (HIV)
[12] = molecular target: HIV Env of isolate 231965.c01 (clade D) (HIV)
[13] = molecular target: HIV Env of isolate 7030102001E5(Rev-) (clade C) (HIV)
[14] = molecular target: HIV Env of isolate ZM53M.PB12 (clade C) (HIV)
[15] = molecular target: HIV Env of isolate Ce1172_H1 (clade C) (HIV)
[16] = molecular target: HIV Env of isolate P1981_C5_3 (clade G) (HIV)
[17] = molecular target: HIV Env of isolate X1632_S2_B10 (clade G) (HIV)
[18] = molecular target: HIV Env of isolate 1394C9G1(Rev-) (clade C) (HIV)
[19] = molecular target: HIV Env of isolate 6535.3 (clade B) (HIV)
[20] = molecular target: HIV Env of isolate 0330.v4.c3 (clade A) (HIV)
[21] = molecular target: HIV Env of isolate 1006_11_C3_1601 (clade B) (HIV)
[22] = molecular target: HIV Env of isolate RHPA4259.7 (clade B) (HIV)
[23] = molecular target: HIV Env of isolate ZM135M.PL10a (clade C) (HIV)
[24] = molecular target: HIV Env of isolate 3103.v3.c10 (clade ACD) (HIV)
[25] = molecular target: HIV Env of isolate CNE19 (clade BC) (HIV)
[26] = molecular target: HIV Env of isolate R2184.c04 (clade AE) (HIV)
[27] = molecular target: HIV Env of isolate 6244_13_B5_4576 (clade B) (HIV)

Row | Binder | IC50 (µg/ml) with constrains [1] | IC50 (µg/ml) with constrains [2] | IC80 (µg/ml) with constrains [2] | IC50 (µg/ml) with constrains [3] | IC50 (µg/ml) with constrains [4] | IC50 (µg/ml) with constrains [5] | IC80 (µg/ml) with constrains [5] | IC50 (µg/ml) with constrains [6] | IC50 (µg/ml) with constrains [7] | IC50 (µg/ml) with constrains [8] | IC50 (µg/ml) with constrains [9] | IC80 (µg/ml) with constrains [9] | IC50 (µg/ml) with constrains [10] | IC80 (µg/ml) with constrains [10] | IC50 (µg/ml) with constrains [11] | IC80 (µg/ml) with constrains [11] | IC50 (µg/ml) with constrains [12] | IC50 (µg/ml) with constrains [13] | IC50 (µg/ml) with constrains [14] | IC50 (µg/ml) with constrains [15] | further results
1 | ePGDM13 (antibody, V domains shown) VH: QAQLVQSGPEVRKPGTSVKVSCKNPGNTLTTYDLHWVRQVPGQGLQWMGWISHEGDKKVIVERFKAKVTIDWDRSTNTAYLQLSGLTSEDTAVYYCAKGSKHRLRDYALYDEDGALNWAVDVDYLANLEFWGQGTAVTVSS VL: DIVLTQSPLSLSVTPGESASISCKSSHSLQHGDRNNYLAWYVQKPGRSPQLLLDLASERASGVPDRFSGSGSEKDFTLKISRVETEDVGTYYCMQGRESPWTFGQGTKVDIK | 0.065 µg/mL | 0.008 µg/mL | 0.033 µg/mL | 0.003 µg/mL | 2.36 µg/mL | 0.037 µg/mL | 0.15 µg/mL | 1.5 µg/mL | 0.002 µg/mL | > 100 µg/mL | > 100 µg/mL | > 100 µg/mL | 0.02 µg/mL | 0.078 µg/mL | 0.007 µg/mL | 0.029 µg/mL | 0.015 µg/mL | > 100 µg/mL | 0.005 µg/mL | 0.061 µg/mL | IC50 (µg/ml) with constrains [16]: 0.319 µg/mL; IC50 (µg/ml) with constrains [17]: 0.003 µg/mL; IC50 (µg/ml) with constrains [18]: 0.003 µg/mL; IC50 (µg/ml) with constrains [19]: > 100 µg/mL; IC50 (µg/ml) with constrains [20]: 0.002 µg/mL; IC80 (µg/ml) with constrains [20]: 0.008 µg/mL; IC50 (µg/ml) with constrains [21]: 0.826 µg/mL; IC50 (µg/ml) with constrains [22]: 0.358 µg/mL; IC50 (µg/ml) with constrains [23]: > 100 µg/mL; IC50 (µg/ml) with constrains [24]: 0.09 µg/mL; IC80 (µg/ml) with constrains [24]: 0.36 µg/mL; IC50 (µg/ml) with constrains [25]: 0.003 µg/mL; IC50 (µg/ml) with constrains [26]: 0.005 µg/mL; IC80 (µg/ml) with constrains [26]: 0.019 µg/mL; IC50 (µg/ml) with constrains [27]: 30.8 µg/mL
2 | ePGDM5 (antibody, V domains shown) VH: QAQLVQSGPEVRKPGTSVKVSCKNPGNTLTTYDLHWVRQVPGQGLQWMGWISHEGDKKVIVERFKAKVTIDWDRSTNTAYLQLSGLTSEDTAVYYCAKGSKHRLRDYALYDEDGALNWAVDVDYLANLEFWGQGTAVTVSS VL: DFVLTQSPLSLSVTPGESASISCKSDHSLQHGDRNNYLAWYVQKPGRSPQLLIDLASERASGVPDRFSGSGSRKDFTLKIDRVEAEDVGTYYCMQGRESPWTFGQGTKVDIK | 0.076 µg/mL | 0.021 µg/mL | 0.083 µg/mL | 0.002 µg/mL | 3.62 µg/mL | 0.013 µg/mL | 0.051 µg/mL | 1.49 µg/mL | 0.001 µg/mL | > 100 µg/mL | > 100 µg/mL | > 100 µg/mL | 0.016 µg/mL | 0.064 µg/mL | 0.005 µg/mL | 0.021 µg/mL | 0.009 µg/mL | > 100 µg/mL | 0.005 µg/mL | 0.016 µg/mL | IC50 (µg/ml) with constrains [16]: 0.295 µg/mL; IC50 (µg/ml) with constrains [17]: 0.003 µg/mL; IC50 (µg/ml) with constrains [18]: 0.002 µg/mL; IC50 (µg/ml) with constrains [19]: 98.2 µg/mL; IC50 (µg/ml) with constrains [20]: 0.003 µg/mL; IC80 (µg/ml) with constrains [20]: 0.01 µg/mL; IC50 (µg/ml) with constrains [21]: 0.473 µg/mL; IC50 (µg/ml) with constrains [22]: 0.464 µg/mL; IC50 (µg/ml) with constrains [23]: > 100 µg/mL; IC50 (µg/ml) with constrains [24]: 0.063 µg/mL; IC80 (µg/ml) with constrains [24]: 0.254 µg/mL; IC50 (µg/ml) with constrains [25]: 0.003 µg/mL; IC50 (µg/ml) with constrains [26]: 0.004 µg/mL; IC80 (µg/ml) with constrains [26]: 0.017 µg/mL; IC50 (µg/ml) with constrains [27]: 18.9 µg/mL
3 | ePGDM9 (antibody, V domains shown) VH: QAQLVQSGPEVRKPGTSVKVSCKNPGNTLTTYDLHWVRQVPGQGLQWMGWISHEGDKKVIVERFKAKVTIDWDRSTNTAYLQLSGLTSEDTAVYYCAKGSKHRLRDYALYDEDGALNWAVDVDYLANLEFWGQGTAVTVSS VL: DIVLTQSPLSLSVTPGESASISCKSSQSLIHGDRNNYLAWYVQKPGRSPQLLIDLASERASGVPDRFSGSGSRKDFTLKISRVETEDVGTYYCMQGRESPWTFGQGTKVDIK | 0.042 µg/mL | 0.007 µg/mL | 0.029 µg/mL | 0.001 µg/mL | 1.06 µg/mL | 0.012 µg/mL | 0.048 µg/mL | 0.865 µg/mL | 0.001 µg/mL | > 100 µg/mL | > 100 µg/mL | > 100 µg/mL | 0.019 µg/mL | 0.076 µg/mL | 0.002 µg/mL | 0.007 µg/mL | 0.009 µg/mL | > 100 µg/mL | 0.006 µg/mL | 0.027 µg/mL | IC50 (µg/ml) with constrains [16]: 0.146 µg/mL; IC50 (µg/ml) with constrains [17]: 0.003 µg/mL; IC50 (µg/ml) with constrains [18]: 0.001 µg/mL; IC50 (µg/ml) with constrains [19]: 57.8 µg/mL; IC50 (µg/ml) with constrains [20]: 0.003 µg/mL; IC80 (µg/ml) with constrains [20]: 0.01 µg/mL; IC50 (µg/ml) with constrains [21]: 0.588 µg/mL; IC50 (µg/ml) with constrains [22]: 0.145 µg/mL; IC50 (µg/ml) with constrains [23]: > 100 µg/mL; IC50 (µg/ml) with constrains [24]: 0.073 µg/mL; IC80 (µg/ml) with constrains [24]: 0.29 µg/mL; IC50 (µg/ml) with constrains [25]: 0.003 µg/mL; IC50 (µg/ml) with constrains [26]: 0.003 µg/mL; IC80 (µg/ml) with constrains [26]: 0.011 µg/mL; IC50 (µg/ml) with constrains [27]: 12.6 µg/mL
4 | PGDM1400 (antibody, V domains shown) VH: QVHLTQSGPEVRKPGTSVKVSCKAPGNTLKTYDLHWVRSVPGQGLQWMGWISHEGDKKVIVERFKAKVTIDWDRSTNTAYLQLSGLTSGDTAVYYCAKGSKHRLRDYALYDDDGALNWAVDVDYLSNLEFWGQGTAVTVSS VL: DFVLTQSPHSLSVTPGESASISCKSSHSLIHGDRNNYLAWYVQKPGRSPQLLIYLASSRASGVPDRFSGSGSDKDFTLKISRVETEDVGTYYCMQGRESPWTFGQGTKVDIK | 0.076 µg/mL | 0.013 µg/mL | 0.05 µg/mL | 0.003 µg/mL | 4.46 µg/mL | 0.068 µg/mL | 0.271 µg/mL | 5.42 µg/mL | 0.001 µg/mL | > 100 µg/mL | > 100 µg/mL | > 100 µg/mL | 0.138 µg/mL | 0.552 µg/mL | 0.016 µg/mL | 0.064 µg/mL | 0.061 µg/mL | > 100 µg/mL | 0.009 µg/mL | 0.218 µg/mL | IC50 (µg/ml) with constrains [16]: 18.9 µg/mL; IC50 (µg/ml) with constrains [17]: 0.034 µg/mL; IC50 (µg/ml) with constrains [18]: 0.003 µg/mL; IC50 (µg/ml) with constrains [19]: > 100 µg/mL; IC50 (µg/ml) with constrains [20]: 0.004 µg/mL; IC80 (µg/ml) with constrains [20]: 0.016 µg/mL; IC50 (µg/ml) with constrains [21]: 1.86 µg/mL; IC50 (µg/ml) with constrains [22]: 0.491 µg/mL; IC50 (µg/ml) with constrains [23]: > 100 µg/mL; IC50 (µg/ml) with constrains [24]: 0.223 µg/mL; IC80 (µg/ml) with constrains [24]: 0.892 µg/mL; IC50 (µg/ml) with constrains [25]: 0.005 µg/mL; IC50 (µg/ml) with constrains [26]: 0.006 µg/mL; IC80 (µg/ml) with constrains [26]: 0.022 µg/mL; IC50 (µg/ml) with constrains [27]: > 100 µg/mL
